Measured values from US20250376535A1 (BEIJING STARMAB BIOMED TECHNOLOGY, published 2025).
Where two headings read alike, the source gives them in different places.

What was measured:
[1] = target: T1, recombinant human CD40-Fc (human, UniProt P25942 21-193); test: ELISA, CD40-Fc coated, VHH at 1.6 nM
T1 construct: also called rh-CD40-Fc; CD40-hFc
Method: (§1) After four times washing with PBST, the plate was incubated with detecting antibody anti-his-HRP (1:4000 dilution) 100 μl per well for one hour with shaking at 60 rpm. The plate was developed with 100 μL of TMB per well in the dark and then stopped by 50 μL of stop solution per well.

[2] = target: T1, recombinant human CD40-Fc; test: ELISA, CD40-Fc coated, VHH at 200 nM
Method: as §1

[3] = target: T1, recombinant human CD40-Fc; test: ELISA, CD40-Fc coated, VHH at 8 nM
Method: as §1

[4] = target: T1, recombinant human CD40-Fc; test: ELISA, CD40-Fc coated, VHH at 1000 nM
Method: as §1

[5] = target: T2, Human CD40 antigen (recombinant, BLI) (human, UniProt P25942 21-193); test: BLI, VHH-His on anti-His tips, human CD40 in solution;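 also: kinetics measured at 30 °C in PBS pH 7.2, association tracked for 200 s, then dissociation followed in PBS lacking CD40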
T2 construct: also called rh-CD40
T2 sequence (P25942 21-193 limits assumed): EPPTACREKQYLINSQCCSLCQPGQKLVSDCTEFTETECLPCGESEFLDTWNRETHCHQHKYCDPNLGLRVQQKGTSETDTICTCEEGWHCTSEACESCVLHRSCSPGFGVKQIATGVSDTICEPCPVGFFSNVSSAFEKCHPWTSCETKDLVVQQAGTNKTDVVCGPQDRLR
Method: Bio-Layer Interferometry (BLI) kinetic binding analysis. […] Affinity measurements were performed with Gator equipped with Anti-Penta-His capture (HIS1K) biosensor tips. The assay was performed at 30° C. in 1×PBS buffer (Gibco®, PBS pH7.2). Samples were agitated at 1000 rpm. Prior to analysis, sensors were humidified for 15 min. […] Sensor data was collected throughout the experiments, processed, and analyzed using the Gator data analysis software.
Briefly, purified anti-CD40 VHH was tested for its binding capacity with HIS1K sensor tips. Tips were loaded using 20 μg/ml of anti-CD40 VHH. Loading proceeded for 300 sec resulting in capture levels of between 1.8 and 2 nm. […] Association was initiated and monitored for 200 sec, after which tips were transferred to 1×PBS buffer without CD40 protein in order to monitor dissociation.

[6] = target: T1, recombinant human CD40-Fc; test: ELISA, CD40-Fc coated, VHH at 0.0026 nM
Method: as §1

[7] = target: T1, recombinant human CD40-Fc; test: ELISA, CD40-Fc coated, VHH at 40 nM
Method: as §1

[8] = target: T1, recombinant human CD40-Fc; test: ELISA, CD40-Fc coated, VHH at 0.064 nM
Method: as §1

[9] = target: T1, recombinant human CD40-Fc; test: ELISA, CD40-Fc coated, VHH at 0.013 nM
Method: as §1

[10] = target: T1, recombinant human CD40-Fc; test: blocking ELISA: CD40L-mFc (1.m18) coated, VHH premixed with CD40-hFc, bound CD40-hFc detected with anti-human IgG Fc-HRP, OD450
Method: The 96-well plate was coated with 100 μL of 1 μg/mL CD40L-mFc prepared in antigen coating buffer overnight at 4° C., then blocked with 2% BSA for 1 hour at 25° C. […] The plate was washed with PBST four times, then incubated with Mouse anti-human IgG Fc-HRP at 25° C. for 1 hour. After four times of wash with PBST, the plate was developed with 100 μL of TMB per well for 10 to 20 min in the dark and then stopped by adding 50 μL of Stop Solution.

[11] = target: T1, recombinant human CD40-Fc; test: ELISA, CD40-Fc coated, VHH at 0.32 nM
Method: as §1

[12] = target: T3, human serum albumin (human, UniProt P02768 25-609); test: BLI (Gator), His-tagged VHH on anti-His sensor, HSA 100 nM in solution
T3 construct: also called HSA
Method: (§2) Kinetic binding analysis of MSA VHHs were performed with Gator Prime system equipped with analyze software. […] The experiments were done at 30° C. Prior to analysis, sensors were socked in Q buffer for 600 sec with shaking at 1000 rpm, and then 2 μM of HIS tagged MSA VHHs were loaded to Anti-His sensors with shaking at 400 rpm for 120 sec. Loaded sensors were transferred into Q buffer for 60 sec. Association of HSA or MSA at 100 nM was initiated and monitored for 120-180 sec with shaking at 1000 rpm, and finally dissociation in Q buffer for 120-180 sec with 1000 rpm shaking. Software V2.0 (Gator Bio) was used for data analysis. The on-rate (Kₒₙ) and off-rate (Kd) were determined by fitting of the association and dissociation phases of each sample. The mathematical model used assumes a 1:1 stoichiometry, fitting only one analyte in solution binding to one binding site on the surface. The equilibrium dissociation constant (KD), a measure for affinity, was then calculated as the ratio of Kd and Kₒₙ.

[13] = target: T4, murine serum albumin (murine, UniProt P07724 25-608); test: BLI (Gator), His-tagged VHH on anti-His sensor, murine serum albumin 100 nM in solution
T4 construct: As antigen 'MSA' means murine serum albumin; the VHHs also carry the label MSA; also called MSA
Method: as §2

[14] = target: T4, murine serum albumin; test: ELISA, murine serum albumin coated, VHH 0.128 nM
Method: The 96-well plate was coated with 100 μL per well of HSA or MSA (murine serum albumin) prepared at 1 μg/ml in coating buffer at 4° C. overnight, then blocked with 200 μL per well of casein for one hour at room temperature. MSA VHHs were made into a series of dilutions and added to HSA or MSA coated plate for one hour incubation. The plate was washed with PBST four times, then incubated with Streptavidin conjugated with HRP at 25° C. for 1 hour. After three times of wash with 250 μL PBST per well, the plate was developed with 100 μL of TMB per well for 10 to 20 min in the dark and then stopped by adding 100 μL of Stop Solution.

[15] = target: T3, human serum albumin; test: BLI (Gator), His-tagged VHH on anti-His sensor, HSA 100 nM in solution; remark: listed apart in the source
Method: as §2

[16] = target: T4, murine serum albumin; test: BLI (Gator), His-tagged VHH on anti-His sensor, murine serum albumin 100 nM in solution; remark: listed apart in the source
Method: as §2

[17] = target: T5, recombinant human OX40-Fc (human, UniProt P43489 29-214); test: blocking ELISA, OX40-hFc premixed with VHH on coated OX40L-mFc; full blocker; full blocker
T5 construct: also called rh-OX40-Fc; human OX40 hFC (R & D systems)
T5 sequence: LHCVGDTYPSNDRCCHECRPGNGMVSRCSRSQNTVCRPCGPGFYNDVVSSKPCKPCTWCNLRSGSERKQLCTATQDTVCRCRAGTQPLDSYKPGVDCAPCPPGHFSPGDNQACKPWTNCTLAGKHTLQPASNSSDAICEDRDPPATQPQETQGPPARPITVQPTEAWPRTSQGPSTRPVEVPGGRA
Method: (§3) Blocking Assay. The 96-well plate was coated with 100 μL of 1 μg/mL OX40L-mFc prepared in antigen coating buffer overnight at 4° C., then blocked with 2% BSA for 1 hour at 25° C. […] The plate was washed with PBST four times, then incubated with Mouse anti-human IgG Fc-HRP at 25° C. for 1 hour. After four times of wash with PBST, the plate was developed with 100 μL of TMB per well for 10 to 20 min in the dark and then stopped by adding 50 μL of Stop Solution.

[18] = target: T5, recombinant human OX40-Fc; test: ELISA, OX40-Fc coated, VHH at 0.32 nM
Method: (§4) After four times washing with PBST, the plate was incubated with detecting antibody anti-his-HRP (1:4000 dilution) 100 μl per well for one hour with shaking at 60 rpm. The plate was developed with 100 μL of TMB per well in the dark and then stopped by 50 μL of stop solution per well. […] Data was analyzed using GraphPad Prisma 9.1.

[19] = target: T5, recombinant human OX40-Fc; test: ELISA, OX40-Fc coated, VHH at 200 nM
Method: as §4

[20] = target: T5, recombinant human OX40-Fc; test: ELISA, OX40-Fc coated, VHH at 1.6 nM
Method: as §4

[21] = target: T5, recombinant human OX40-Fc; test: ELISA, OX40-Fc coated, VHH at 8 nM
Method: as §4

[22] = target: T5, recombinant human OX40-Fc; test: ELISA, OX40-Fc coated, VHH at 0.064 nM
Method: as §4

[23] = target: T5, recombinant human OX40-Fc; test: BLI, VHH-His on anti-His tips, OX40 hFc in solution;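 also: kinetics recorded at 30 °C in PBS pH 7.2, with 200 s of association followed by dissociation monitored in PBS lacking the OX40 protein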
Method: Bio-Layer Interferometry (BLI) kinetic binding analysis. […] Affinity measurements were performed with Gator equipped with Anti-Penta-His capture (HIS1K) biosensor tips. The assay was performed at 30° C. in 1×PBS buffer (Gibco®, PBS pH7.2). Samples were agitated at 1000 rpm. Prior to analysis, sensors were humidified for 15 min. Purified anti-OX40 VHH was tested for its binding capacity with HIS1K sensor tips. Tips were loaded using 20 μg/ml of anti-OX40 VHH. Loading proceeded for 300 s resulting in capture levels of between 1.8 and 2 nm. […] Association was initiated and monitored for 200 sec, after which tips were transferred to 1×PBS buffer without Factor protein (Gibco, PBS pH 7.2), in order to monitor dissociation. Sensor data was collected throughout the experiments, processed, and analyzed using the Gator data analysis software.

[24] = target: T5, recombinant human OX40-Fc; test: ELISA, OX40-Fc coated, VHH at 1000 nM
Method: as §4

[25] = target: T5, recombinant human OX40-Fc; test: ELISA, OX40-Fc coated, VHH at 40 nM
Method: as §4

[26] = target: T5, recombinant human OX40-Fc; test: ELISA, OX40-Fc coated, VHH at 0.0128 nM
Method: as §4

[27] = target: T5, recombinant human OX40-Fc; test: blocking ELISA, OX40-hFc premixed with VHH on coated OX40L-mFc; partial blocker; partial blocker
Method: as §3

[28] = target: T6, 4-1BB Fc (human, UniProt Q07011 24-183); test: blocking ELISA: 41BBL-mFc (1.m32) coated, VHH premixed with 41BB-hFc, bound 41BB-hFc detected with anti-human IgG Fc-HRP, OD450
T6 construct: also called rh-41BB; 41BB-hFc
T6 sequence (Q07011 24-183): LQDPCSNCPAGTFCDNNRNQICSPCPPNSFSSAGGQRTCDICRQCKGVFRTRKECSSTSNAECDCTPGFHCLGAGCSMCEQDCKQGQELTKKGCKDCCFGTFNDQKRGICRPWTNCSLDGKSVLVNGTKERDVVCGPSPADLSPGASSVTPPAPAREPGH
Method: The 96-well plate was coated with 100 μL of 1 μg/mL 41BBL-mFc prepared in antigen coating buffer overnight at 4° C., then blocked with 2% BSA for 1 hour at 25° C. […] The plate was washed with PBST four times, then incubated with Mouse anti-human IgG Fc-HRP at 25° C. for 1 hour. After four times of wash with PBST, the plate was developed with 100 μL of TMB per well for 10 to 20 min in the dark and then stopped by adding 50 μL of Stop Solution.

[29] = target: T7, Human 41BB antigen (BLI) (human, UniProt Q07011 24-183); test: BLI, VHH-His on anti-His tips, human 41BB in solution;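 also: association tracked for 200 s, after which dissociation was followed in 1×PBS free of 41BB protein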
T7 construct: also called 41BB protein
T7 sequence (Q07011 24-183 limits assumed): as the sequence (Q07011 24-183) above
Method: Tips were loaded using 20 μg/ml of anti-41BB VHH. Loading proceeded for 300 sec resulting in capture levels of between 1.8 and 2 nm. […] Association was initiated and monitored for 200 sec, after which tips were transferred to 1×PBS buffer without 41BB protein, in order to monitor dissociation.

T1 sequence (P25942 21-193): as the sequence (P25942 21-193 limits assumed) above

B1: pgDD40-HZ-24 (VHH, not shown: small tags and cut ends)
VHH: EVQLVESGGGSVQAGGSLRLSCAASLSTFSNYRMGWFRRAPGKERELVARIEPHGVVDYGDSVKGRFTISRDNAKNTVTVYLHMNSLKPEDTAVYYCNALRLISGRYDPLFSSWGQGTQVTVSS
notes: also called pgDD40-HG-24
- OD450 [1]: 0.903
- OD450 [2]: 1.84
- OD450 [3]: 1.7
- OD450 [4]: 1.81
- Kd [5]: < 0.001 nM
- koff [5]: 1e-05 s⁻¹
- kon [5]: 607000 M⁻¹ s⁻¹
- OD450 [6]: 0.078
- OD450 [7]: 1.71
- OD450 [8]: 0.084
- OD450 [9]: 0.055
- IC50 (read off the curve) [10]: ~20 nM
- OD450 [11]: 0.251

B2: MSA4 (VHH)
VHH: EVQLVEFGGGLVQAGGSLRLSCAASGRTDSAYRMGWFRQAPGKEREFVSAINWSDGRTVYLDSVKGRFTISRDNAKNMVYLQMNSLKPEDTAVYYCAADPDSRLYYTVPQNYDYWGQGTQVTVSS
notes: Llama single domain antibody with C-terminal His-tag, made in HEK293; not shown: C-terminal His-tag
- Kd [12]: 7.16 nM
- koff [12]: 0.000752 s⁻¹
- kon [12]: 105000 M⁻¹ s⁻¹
- Kd [13]: 8.83 nM
- koff [13]: 0.0011 s⁻¹
- kon [13]: 125000 M⁻¹ s⁻¹
- ELISA OD450 [14]: 0.07
- Kd [15]: 11.3 nM
- koff [15]: 0.00101 s⁻¹
- kon [15]: 89600 M⁻¹ s⁻¹
- Kd [16]: 4.49 nM
- koff [16]: 0.000644 s⁻¹
- kon [16]: 143000 M⁻¹ s⁻¹

B3: pgXX88-10 (VHH, not shown: small tags and cut ends)
VHH: EVQLVESGGGLVQAGESLRLSCSASGSIRLNAVGWFRQAPVNQRLMVATITHNNSTNYADSVQGRFTIARDDAKNTVTLQMNSLKPEDTAVYMCKVYQLPVPISSHDDYWGQGTQVTVSS
- EC50 [17]: 0.12 nM
- OD450 [18]: 0.993
- OD450 [19]: 1.61
- OD450 [20]: 1.46
- OD450 [21]: 1.48
- OD450 [22]: 0.369
- Kd [23]: < 0.001 nM
- koff [23]: 1e-06 s⁻¹
- kon [23]: 662000 M⁻¹ s⁻¹
- OD450 [24]: 1.62
- OD450 [25]: 1.54
- OD450 [26]: 0.119

B4: pgXX88-SZ-15 (VHH, not shown: small tags and cut ends)
VHH: QVQLVESGGGLVQPGGSLRLSCSPSEGAFKMLTTGWFRQVLGKEREFVSAISWGGGATYYADSVKGRFTVSRDNAKNTVYLQMNSLKPEDTAVYYCAVDTGNGVATNIRSQSRYDYWGQGTQVTVSS
- EC50 [17]: 0.12 nM
- OD450 [18]: 0.736
- OD450 [19]: 1.94
- OD450 [20]: 1.66
- OD450 [21]: 1.89
- OD450 [22]: 0.166
- Kd [23]: 0.48 nM
- koff [23]: 0.000259 s⁻¹
- kon [23]: 539000 M⁻¹ s⁻¹
- OD450 [24]: 2.12
- OD450 [25]: 1.95
- OD450 [26]: 0.068

B5: pgXX88-SZ-4 (VHH, not shown: small tags and cut ends)
VHH: QVQLVESGGGLAQPGSSLRLSCTASGTVFSILSATWFRQAPGKAHEARELVAFISSDGVSMHADSVKGRFTISRDNAASTVYLQMDNLQPEDTAVYFCKLSNSMMSLEYWGRGTQVTVSS
notes: also called ppXX88-SZ-4
- OD450 [18]: 0.126
- OD450 [19]: 1.58
- OD450 [20]: 0.463
- OD450 [21]: 1.12
- OD450 [22]: 0.076
- Kd [23]: 0.185 nM
- koff [23]: 8.73e-05 s⁻¹
- kon [23]: 472000 M⁻¹ s⁻¹
- OD450 [24]: 1.78
- EC50 [27]: 1.98 nM
- OD450 [25]: 1.49
- OD450 [26]: 0.062

B6: 4-1BB-59 (VHH, not shown: small tags and cut ends)
VHH: EVQLVESGGGLVQPGESLRLSCAASGDTVSGYVMLWWRQAPGKERELVAAISSVGYTYYTDSVKGRFTISRDNAKNTVYLQMNSLKPEDTAVYYCAADPASISTRSAYWGQGTQVTVSS
- IC50 (read off the curve) [28]: ~0.5 nM
- Kd [29]: 2.35 nM
- koff [29]: 0.00121 s⁻¹
- kon [29]: 512000 M⁻¹ s⁻¹
